These results are taken from patent US20250270318A1 (AB THERAPEUTICS, published 2025).

In test [1] the target is T1, TIGIT (on TIGIT-transfected Jurkat cells) (UniProt Q495A1 22-244, limits assumed).
T1 construct: whole, on cells; also called Jurkat TIGIT; cell-associated TIGIT
T1 sequence (looked up): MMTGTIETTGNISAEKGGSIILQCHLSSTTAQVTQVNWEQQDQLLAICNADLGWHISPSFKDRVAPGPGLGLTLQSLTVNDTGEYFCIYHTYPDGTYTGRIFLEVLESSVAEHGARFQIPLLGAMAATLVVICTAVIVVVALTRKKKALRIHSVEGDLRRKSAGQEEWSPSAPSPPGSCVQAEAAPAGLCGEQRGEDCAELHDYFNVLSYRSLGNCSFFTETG
Nature of the test: competition flow cytometry: blocking of biotinylated CD155 binding to Jurkat TIGIT cells. Here is the method:
(§1) 10⁵ cells (RKO for PD-1/PD-L1 blocking, Raji for MHC-II/LAG-3 blocking, and Jurkat TIGIT for CD155/TIGIT blocking) were distributed per well in 0.1 ml medium to 96-well V-bottom plate in duplicate. Supernatants were discarded after spinning down cells at 300 g, 5 min at room temperature. […] After incubation, cells were washed by adding 0.15 ml cell staining buffer (PBS containing 1% FBS and 0.1% NaN3) and centrifugation at 300 g, 5 min at room temperature. Supernatants were discarded and cells were washed one more time with 0.15 ml of staining buffer. Cells were subsequently resuspended in […] of 1:500 Streptavidin-PE and incubated at RT for 30 min. Cells were spun down after 0.15 ml cell staining buffer was added, resuspended in 0.12 ml of cell staining buffer, and analyzed by flow cytometry on a NovoCyte flow cytometer (Agilent).
On the technique in general: In flow cytometry, cells or beads pass a laser one at a time.

Test [2] addresses T1, TIGIT (on TIGIT-transfected Jurkat …). Nature of the test: flow cytometry, antibody binding to Jurkat TIGIT cells (MFI), fluorescent anti-human IgG Fc secondary. The protocol:
(§2) 10⁵ cells (RKO, Jurkat TIGIT, and Jurkat LAG-3 for testing antibody binding to PD-L1, TIGIT, and LAG-3, respectively) per well were distributed in 0.1 ml medium to 96-well V-bottom plates. Supernatants were discarded after spinning down cells at 300 g, 5 min at room temperature. Cells were resuspended in […] of a serial dilution of antibodies and incubated for 1 h at room temperature. After incubation, cells were washed by adding 0.15 ml cell staining buffer (PBS containing 1% FBS and 0.1% NaN3) and centrifugation at 300 g, 5 min at room temperature. Supernatants were discarded and cells were washed one more time with 0.15 ml of staining buffer. Cells were subsequently resuspended in […] of secondary antibody (Alexa Fluor 647-conjugated AffiniPure Goat Anti-Human IgG, Fcγ Fragment Specific. Used at 1:500) and incubated at RT for 30 min. Cells were spun down after 0.15 ml cell staining buffer was added, resuspended in 0.12 ml of cell staining buffer, and analyzed by flow cytometry on a NovoCyte flow cytometer (Agilent).

Test [3] has the same target. Nature of the test: flow cytometry blocking assay: biotinylated CD155 binding to Jurkat TIGIT cells (MFI), streptavidin detection. The protocol:
as §1

Test [4] concerns the target T2, PD-L1 (endogenous, on RKO colon cancer cells) (human, UniProt Q9NZQ7 19-290).
T2 construct: whole, on cells; also called cell-associated PD-L1; CD274
Nature of the test: flow cytometry, antibody binding to PDL1+ RKO cells (MFI). The protocol:
as §2

Test [5] addresses T3, LAG-3 (on LAG-3-transfected Jurkat cells) (UniProt P18627 23-525, limits assumed).
T3 construct: whole, on cells; also called Jurkat LAG-3; cell-associated LAG-3
T3 sequence (looked up): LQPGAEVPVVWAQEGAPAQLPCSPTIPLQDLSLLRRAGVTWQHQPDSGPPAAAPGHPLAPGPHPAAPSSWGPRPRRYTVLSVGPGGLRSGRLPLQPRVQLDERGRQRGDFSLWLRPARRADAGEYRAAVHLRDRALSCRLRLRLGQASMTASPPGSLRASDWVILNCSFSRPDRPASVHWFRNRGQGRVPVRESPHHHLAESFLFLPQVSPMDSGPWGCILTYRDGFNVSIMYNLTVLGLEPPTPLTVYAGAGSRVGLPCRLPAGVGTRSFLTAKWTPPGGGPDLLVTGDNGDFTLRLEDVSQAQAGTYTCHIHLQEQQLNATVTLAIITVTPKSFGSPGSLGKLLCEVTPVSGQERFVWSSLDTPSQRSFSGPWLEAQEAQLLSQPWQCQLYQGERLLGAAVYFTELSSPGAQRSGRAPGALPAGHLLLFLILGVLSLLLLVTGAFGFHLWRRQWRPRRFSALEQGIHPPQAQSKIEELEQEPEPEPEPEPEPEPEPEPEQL
Nature of the test: flow cytometry, antibody binding to Jurkat LAG-3 cells (MFI). The protocol: as §2

T2 sequence (Q9NZQ7 19-290): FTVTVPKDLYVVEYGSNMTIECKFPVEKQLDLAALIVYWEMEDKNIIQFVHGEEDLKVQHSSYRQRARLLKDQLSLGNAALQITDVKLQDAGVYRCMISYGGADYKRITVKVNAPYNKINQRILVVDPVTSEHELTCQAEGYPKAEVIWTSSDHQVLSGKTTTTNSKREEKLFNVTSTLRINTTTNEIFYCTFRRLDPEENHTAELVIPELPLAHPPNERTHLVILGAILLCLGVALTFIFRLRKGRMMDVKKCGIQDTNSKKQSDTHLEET

B1: tiragolumab (antibody, V domains shown)
VH: EVQLQQSGPGLVKPSQTLSLTCAISGDSVSSNSAAWNWIRQSPSRGLEWLGKTYYRFKWYSDYAVSVKGRITINPDTSKNQFSLQLNSVTPEDTAVFYCTRESTTYDLLAGPFDYWGQGTLVTVSS
VL: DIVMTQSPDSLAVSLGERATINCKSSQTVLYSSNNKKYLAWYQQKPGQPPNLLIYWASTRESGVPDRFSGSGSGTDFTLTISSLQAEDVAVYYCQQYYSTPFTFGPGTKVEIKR
With B1, the IC50 – broadly, the point on the concentration scale where inhibition reaches its midpoint – is approximately 0.3 nM in test [1] and 0.29 nM in test [3]. The EC50 (usually the concentration at which the effect is half-maximal) in test [2] was determined as 0.31 nM.

B2: parental anti-TIGIT antibody (antibody, human IgG1, V domains shown)
VH: EVQLVESGGGLVQPGGSLRLSCAASSRTFSRYAMGWFRRAPGKEREFVASISWSGGGLEYAESVKGRFTISRDGSKNTVYLQMNSLAAEDTAVYYCAADPWGSLVNGAVRYEYWGQGTLVTVSS
notes: also called αTIGIT; ABT's parental anti-TIGIT antibody
With B2, the binding result in test [4] was “no binding (tested: 100 nM)”. Besides, the IC50 is approximately 2.5 nM in test [1] and 2.65 nM in test [3]. The midpoint of the response in test [2], the EC50, lay at 5.64 nM.

B3: PD-L1/TIGIT BsAb (bispecific antibody, V domains shown)
V domain 1: B2 VH
V domain 2: not shown
notes: also called PD-L1/TIGIT bispecific antibody; TIGIT/PD-L1 bispecific antibody; not shown: linker peptide
Take B3: the binding result in test [5] was “no binding (tested: 100 nM)”. In addition, the half-inhibitory concentration (IC50) in test [1] was approximately 0.3 nM; in test [3], 0.37 nM. Besides, the EC50 in test [2] is 1.59 nM.
